Data taken from patent US20190225698A1 (published 2019).
Read-outs that look alike come from different tables or passages of the source. Each block holds one binder with its values, some of them ahead of it.

Assays:
human CD27-His = assay: SPR
[1] = target: T1, rhesus monkey CD27-Fc protein (rhesus monkey); assay: BLI
T1 chain: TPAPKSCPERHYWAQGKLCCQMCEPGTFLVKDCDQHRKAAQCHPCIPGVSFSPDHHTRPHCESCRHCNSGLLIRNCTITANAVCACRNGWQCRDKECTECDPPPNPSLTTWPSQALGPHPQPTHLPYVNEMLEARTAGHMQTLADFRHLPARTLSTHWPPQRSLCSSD

[2] = target: T2, human CD27 expressed on the cell surface of transfected HEK293 cells (human, UniProt P26842 20-260); assay: flow cytometry
[3] = target: T3, murine CD27 expressed on the cell surface of transfected HEK293 cells (murine, UniProt P41272 24-250); assay: flow cytometry
T3 chain: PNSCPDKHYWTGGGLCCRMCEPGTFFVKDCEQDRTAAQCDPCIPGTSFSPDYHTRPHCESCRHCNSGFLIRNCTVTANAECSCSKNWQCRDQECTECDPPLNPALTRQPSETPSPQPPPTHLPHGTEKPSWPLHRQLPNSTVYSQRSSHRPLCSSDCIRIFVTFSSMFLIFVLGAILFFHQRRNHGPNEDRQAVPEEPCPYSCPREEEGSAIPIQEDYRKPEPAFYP

[4] = target: T4, murine CD27-FcHis fusion protein (murine, UniProt P41272 24-182); assay: SPR
T4 chain: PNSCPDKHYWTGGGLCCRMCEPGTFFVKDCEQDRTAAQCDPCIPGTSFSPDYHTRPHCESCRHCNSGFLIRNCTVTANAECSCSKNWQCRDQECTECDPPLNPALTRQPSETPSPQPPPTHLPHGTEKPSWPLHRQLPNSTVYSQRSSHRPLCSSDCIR

[5] = target: T5, human CD27-HisFc fusion protein (human, UniProt P26842 20-192); assay: BLI
T5 chain: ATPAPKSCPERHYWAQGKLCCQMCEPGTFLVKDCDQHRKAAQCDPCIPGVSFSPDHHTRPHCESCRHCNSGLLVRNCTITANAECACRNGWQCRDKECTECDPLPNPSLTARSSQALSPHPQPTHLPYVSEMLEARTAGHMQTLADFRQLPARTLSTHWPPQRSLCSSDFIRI

[6] = target: T2, human CD27 expressed on the cell …; assay: flow cytometry; remark: listed apart in the source
[7] = target: T3, murine CD27 expressed on the cell …; assay: flow cytometry

B1: 1F5-IgG (antibody, V domains shown)
VH: QVQLVESGGGVVQPGRSLRLSCAASGFTFSSYDMHWVRQAPGKGLEWVAVIWYDGSNKYYADSVKGRFTISRDNSKNTLYLQMNSLRAEDTAVYYCARGSGNWGFFDYWGQGTLVTVSS
VL: DIQMTQSPSSLSASVGDRVTITCRASQGISRWLAWYQQKPEKAPKSLIYAASSLQSGVPSRFSGSGSGTDFTLTISSLQPEDFATYYCQQYNTYPRTFGQGTKVEIK
Kd (human CD27-His): 1.39 nM

B3: anti-CD27 antibody mAb077 (IgG1 form) (antibody, V domains shown)
VH: EVQLVESGGGLVQPGGSLRLSCAASGFTFSGYGIHWVRQAPGKGLEWIGWINPNRGSTKYAQKFQGRVTISRDNSKNTLYLQLNSLRAEDTAVYYCARDPGYTWYFDVWGQGTLVTVSS
VL: DIQLTQSPSSLSASVGDRVTITCRASQDISSDLAWYQQKPGKAPKLLIYAASTLQSGVPSRFSGSGSGTDFTLTISSLQPEDFATYYCQQRDAWPPTFGQGTKVEIK
Kd [4]: 0.0304 nM | Kd [1]: 0.562 nM

B5: mAb076 antibody Fab fragment with C-terminal histidine tag (Fab, V domains shown)
VH: EVQLVESGGGLVQPGGSLRLSCAASGFTFSDYGIHWVRQAPGKGLEWIGWINPNRGSTNYAQKFQGRVTISRDNSKNTLYLQLNSLRAEDTAVYYCARDYGYTWYFDVWGQGTLVTVSS
VL: DIQLTQSPSSLSASVGDRVTITCRASQDISSVLAWYQQKPGKAPKLLIYAASSLQSGVPSRFSGSGSGTDFTLTISSLQPEDFATYYCQQRDAWPLTFGQGTKVEIK
Kd [5]: 1.61 nM

B7: anti-CD27 antibody mAb076 (IgG1 form) (antibody, V domains shown)
VH: EVQLVESGGGLVQPGGSLRLSCAASGFTFSDYGIHWVRQAPGKGLEWIGWINPNRGSTNYAQKFQGRVTISRDNSKNTLYLQLNSLRAEDTAVYYCARDYGYTWYFDVWGQGTLVTVSS
VL: DIQLTQSPSSLSASVGDRVTITCRASQDISSVLAWYQQKPGKAPKLLIYAASSLQSGVPSRFSGSGSGTDFTLTISSLQPEDFATYYCQQRDAWPLTFGQGTKVEIK
Kd [6]: 0.16 nM | Kd [7]: 0.3 nM | Kd [4]: 0.0754 nM | Kd [1]: < 0.001 nM

More lines, now with the values ahead:

Kd [1]: 2.13 nM | Kd [2]: 0.56 nM | Kd [3]: 31 nM
B2: reference antibody 1F5 (antibody, V domains shown)
VH: QVQLVESGGGVVQPGRSLRLSCAASGFTFSSYDMHWVRQAPGKGLEWVAVIWYDGSNKYYADSVKGRFTISRDNSKNTLYLQMNSLRAEDTAVYYCARGSGNWGFFDYWGQGTLVTVSS
VL: DIQMTQSPSSLSASVGDRVTITCRASQGISRWLAWYQQKPEKAPKSLIYAASSLQSGVPSRFSGSGSGTDFTLTISSLQPEDFATYYCQQYNTYPRTFGQGTKVEIK

Kd (human CD27-His): 0.137 nM
B4: mAb077-IgG (antibody, V domains shown)
VH: EVQLVESGGGLVQPGGSLRLSCAASGFTFSGYGIHWVRQAPGKGLEWIGWINPNRGSTKYAQKFQGRVTISRDNSKNTLYLQLNSLRAEDTAVYYCARDPGYTWYFDVWGQGTLVTVSS
VL: DIQLTQSPSSLSASVGDRVTITCRASQDISSDLAWYQQKPGKAPKLLIYAASTLQSGVPSRFSGSGSGTDFTLTISSLQPEDFATYYCQQRDAWPPTFGQGTKVEIK

Kd (human CD27-His): 0.332 nM
B6: mAb076-IgG (antibody, V domains shown)
VH: EVQLVESGGGLVQPGGSLRLSCAASGFTFSDYGIHWVRQAPGKGLEWIGWINPNRGSTNYAQKFQGRVTISRDNSKNTLYLQLNSLRAEDTAVYYCARDYGYTWYFDVWGQGTLVTVSS
VL: DIQLTQSPSSLSASVGDRVTITCRASQDISSVLAWYQQKPGKAPKLLIYAASSLQSGVPSRFSGSGSGTDFTLTISSLQPEDFATYYCQQRDAWPLTFGQGTKVEIK

Kd [5]: 4.08 nM
B8: mAb077 antibody Fab fragment with C-terminal histidine tag (Fab, V domains shown)
VH: EVQLVESGGGLVQPGGSLRLSCAASGFTFSGYGIHWVRQAPGKGLEWIGWINPNRGSTKYAQKFQGRVTISRDNSKNTLYLQLNSLRAEDTAVYYCARDPGYTWYFDVWGQGTLVTVSS
VL: DIQLTQSPSSLSASVGDRVTITCRASQDISSDLAWYQQKPGKAPKLLIYAASTLQSGVPSRFSGSGSGTDFTLTISSLQPEDFATYYCQQRDAWPPTFGQGTKVEIK
